Source: US20260049138A1 (Chugai, published 2026)

B1: CE115HA000 S62P one-arm antibody (antibody, human IgG1, kappa, L234A L235A, N297A, name in Kabat numbering)
heavy: QVQLVESGGGVVQPGRSLRLSCAASGFTFSNAWMHWVRQAPGKGLEWVAQIKAKSNNYATYYAEPVKGRFTISRDDSKNSLYLQMNSLKTEDTAVYYCRYVHYGAYYGVDAWGQGTTVTVSSASTKGPSVFPLAPSSKSTSGGTAALGCLVKDYFPEPVTVSWNSGALTSGVHTFPAVLQSSGLYSLSSVVTVPSSSLGTQTYICNVNHKPSNTKVDKKVEPKSCDKTHTCPPCPAPEAAGGPSVFLFPPKPKDTLMISRTPEVTCVVVDVSHEDPEVKFNWYVDGVEVHNAKTKPREEQYASTYRVVSVLTVLHQDWLNGKEYKCKVSNKALPAPIEKTISKAKGQPREPQVYTLPPSRCELTKNQVSLSCAVKGFYPSDIAVEWESNGQPENNYKTTPPVLDSDGSFFLVSKLTVDKSRWQQGNVFSCSVMHEALHNHYTQKSLSLSPDYKDDDDK
chain: EPKSSDKTHTCPPCPAPELLGGPSVFLFPPKPKDTLMISRTPEVTCVVVDVSHEDPEVKFNWYVDGVEVHNAKTKPREEQYNSTYRVVSVLTVLHQDWLNGKEYKCKVSNKALPAPIEKTISKAKGQPREPQVCTLPPSRDELTKNQVSLWCLVKGFYPSDIAVEWESNGQPENNYKTTPPVLDSDGSFFLYSKLTVDKSRWQQGNVFSCSVMHEALHNRYTQKSLSLSP
light: DIVMTQSPLSLPVTPGEPASISCRSSQSLVHSNRNTYLHWYQQKPGQAPRLLIYKVSNRFSGVPDRFSGSGSGTDFTLKISRVEAEDVGVYYCGQGTQVPYTFGQGTKLEIKRTVAAPSVFIFPPSDEQLKSGTASVVCLLNNFYPREAKVQWKVDNALQSGNSQESVTEQDSKDSTYSLSSTLTLSKADYEKHKVYACEVTHQGLSSPVTKSFNRGEC
B2: CE115HA000 S74A one-arm antibody (antibody, human IgG1, kappa, L234A L235A, N297A, name in Kabat numbering)
heavy: QVQLVESGGGVVQPGRSLRLSCAASGFTFSNAWMHWVRQAPGKGLEWVAQIKAKSNNYATYYAESVKGRFTISRDDAKNSLYLQMNSLKTEDTAVYYCRYVHYGAYYGVDAWGQGTTVTVSSASTKGPSVFPLAPSSKSTSGGTAALGCLVKDYFPEPVTVSWNSGALTSGVHTFPAVLQSSGLYSLSSVVTVPSSSLGTQTYICNVNHKPSNTKVDKKVEPKSCDKTHTCPPCPAPEAAGGPSVFLFPPKPKDTLMISRTPEVTCVVVDVSHEDPEVKFNWYVDGVEVHNAKTKPREEQYASTYRVVSVLTVLHQDWLNGKEYKCKVSNKALPAPIEKTISKAKGQPREPQVYTLPPSRCELTKNQVSLSCAVKGFYPSDIAVEWESNGQPENNYKTTPPVLDSDGSFFLVSKLTVDKSRWQQGNVFSCSVMHEALHNHYTQKSLSLSPDYKDDDDK
chain: EPKSSDKTHTCPPCPAPELLGGPSVFLFPPKPKDTLMISRTPEVTCVVVDVSHEDPEVKFNWYVDGVEVHNAKTKPREEQYNSTYRVVSVLTVLHQDWLNGKEYKCKVSNKALPAPIEKTISKAKGQPREPQVCTLPPSRDELTKNQVSLWCLVKGFYPSDIAVEWESNGQPENNYKTTPPVLDSDGSFFLYSKLTVDKSRWQQGNVFSCSVMHEALHNRYTQKSLSLSP
light: DIVMTQSPLSLPVTPGEPASISCRSSQSLVHSNRNTYLHWYQQKPGQAPRLLIYKVSNRFSGVPDRFSGSGSGTDFTLKISRVEAEDVGVYYCGQGTQVPYTFGQGTKLEIKRTVAAPSVFIFPPSDEQLKSGTASVVCLLNNFYPREAKVQWKVDNALQSGNSQESVTEQDSKDSTYSLSSTLTLSKADYEKHKVYACEVTHQGLSSPVTKSFNRGEC

Target: T1, CD3ε homodimer protein (human, UniProt P07766 23-126, limits assumed, sulfo-tag or biotin label in the ECL assays; amine-coupled to the chip in SPR)
T1 construct: also called human CD3ε homodimer protein; CD3 (CD3ε)
Experiment: SPR Biacore T200; CD3ε homodimer on CM4 chip;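 note: Single-residue variant antibodies injected as analyte over CD3ε homodimer immobilized by amine coupling, run at 25 °C in HBS-EP+ buffer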
Method: An appropriate amount of CD3ε homodimer protein was immobilized onto Sensor chip CM4 (GE Healthcare Japan Corp.) by the amine coupling method. Then, the antibody having an appropriate concentration was injected thereto as an analyte and allowed to interact with the CD3ε homodimer protein on the sensor chip. Then, the sensor chip was regenerated by the injection of 10 mmol/L glycine-HCl (pH 1.5). The assay was conducted at 25° C., and HBS-EP+ (GE Healthcare Japan Corp.) was used as a running buffer. […] Each parameter was calculated using Biacore T200 Evaluation Software (GE Healthcare Japan Corp.).

T1 sequence (P07766 23-126 limits assumed): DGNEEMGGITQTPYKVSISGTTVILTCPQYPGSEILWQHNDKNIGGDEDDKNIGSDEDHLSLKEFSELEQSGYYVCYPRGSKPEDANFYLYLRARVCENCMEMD

Binder | ratio of amounts bound Z=Y/X (altered form / CE115HA000)
B1 | 1
B2 | 1.05
